# Experimental data published in patent US20140093477A1.
# Legend:
# [1] = biological target: fibronectin on host cells (UniProt P02751); assay: cell-based or functional assay
# [2] = biological target: fibronectin from human plasma (full-length soluble fibronectin) (human) (UniProt P02751); assay: fluorescence saturation binding, fluorophore-labeled MBP-MAM on immobilized fibronectin (coated plates)
Substance,delay of attachment of labeled MAM7 protein to trypsin-treated host cells [1] [h],Kd [2] [µM]
"MBP-MAM7 (6xHis-MBP-Cys-MAM7, seven mce domains), Alexa Fluor 488-labeled (from UniProt P0AEX9 27-392)",1,–
"MBP-MAM6 (6xHis-MBP-Cys-six mce domains), Alexa Fluor 488-labeled",–,36
